This is an account of results in doi:10.1101/2022.02.28.482149 (bioRxiv, 2022).

The data set deals with the molecule itself. Nature of the data set: crystal structure.

B1: MaFRSA (Methanomethylophilus alvus pyrrolysyl-tRNA synthetase, MaPylRS N166A:V168A) (enzyme)
chain: MTVKYTDAQIQRLREYGNGTYEQKVFEDLASRDAAFSKEMSVASTDNEKKIKGMIANPSRHGLTQLMNDIADALVAEGFIEVRTPIFISKDALARMTITEDKPLFKQVFWIDEKRALRPMLAPNLYSVMRDLRDHTDGPVKIFEMGSCFRKESHSGMHLEEFTMLALADMGPRGDATEVLKNYISVVMKAAGLPDYDLVQEESDVYKETIDVEINGQEVCSAAVGPHYLDAAHDVHEPWSGAGFGLERLLTIREKYSTVKKGGASISYLNGAKIN
In the case of B1, the binding result is on record as “binds”.
